Laboratory results as given in patent US20200199213A1 (Eli Lilly, published 2020).

T1: human ANGPTL3 (human, UniProt Q9Y5C1 17-460)
T1 construct: Biotinylated in the ELISA assays; also called hANGPTL3; free ANGPTL3
T1 sequence: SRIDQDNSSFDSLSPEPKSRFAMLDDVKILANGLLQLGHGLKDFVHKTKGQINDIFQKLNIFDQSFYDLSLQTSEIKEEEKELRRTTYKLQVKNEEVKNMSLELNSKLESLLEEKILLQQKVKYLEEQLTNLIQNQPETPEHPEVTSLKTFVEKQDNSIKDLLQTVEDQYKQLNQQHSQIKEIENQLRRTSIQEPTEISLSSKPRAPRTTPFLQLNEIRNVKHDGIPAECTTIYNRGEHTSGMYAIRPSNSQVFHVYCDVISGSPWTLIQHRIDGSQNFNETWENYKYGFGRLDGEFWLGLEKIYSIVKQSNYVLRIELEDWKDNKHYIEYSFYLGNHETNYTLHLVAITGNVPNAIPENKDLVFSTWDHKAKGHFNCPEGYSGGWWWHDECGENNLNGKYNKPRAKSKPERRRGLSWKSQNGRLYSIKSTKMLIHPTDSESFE

T2: human ANGPTL3/8 complex (human, UniProt Q9Y5C1 17-460; Q6UXH0 22-198, limits assumed)
T2 construct: also called hANGPTL3/8 complex; ANGTPL3/8 complex
T2 sequence 1: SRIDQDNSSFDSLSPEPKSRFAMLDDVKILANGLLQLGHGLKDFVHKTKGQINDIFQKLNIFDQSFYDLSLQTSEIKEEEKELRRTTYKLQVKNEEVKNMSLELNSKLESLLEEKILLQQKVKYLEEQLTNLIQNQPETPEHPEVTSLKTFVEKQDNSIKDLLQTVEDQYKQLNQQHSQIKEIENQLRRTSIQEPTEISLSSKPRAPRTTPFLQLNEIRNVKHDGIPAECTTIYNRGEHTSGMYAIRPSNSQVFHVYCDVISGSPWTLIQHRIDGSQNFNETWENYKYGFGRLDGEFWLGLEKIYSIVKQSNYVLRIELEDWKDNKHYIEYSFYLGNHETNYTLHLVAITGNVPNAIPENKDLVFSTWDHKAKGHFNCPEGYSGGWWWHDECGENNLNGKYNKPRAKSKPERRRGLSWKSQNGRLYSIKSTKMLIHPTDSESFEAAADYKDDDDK
T2 sequence 2: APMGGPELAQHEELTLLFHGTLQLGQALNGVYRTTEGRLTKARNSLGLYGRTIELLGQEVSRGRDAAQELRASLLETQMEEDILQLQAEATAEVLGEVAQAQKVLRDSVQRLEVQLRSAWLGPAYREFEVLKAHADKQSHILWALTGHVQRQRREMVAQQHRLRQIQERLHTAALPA

T3: human ANGPTL8 (human, UniProt Q6UXH0 22-198)
T3 construct: Biotinylated in the ELISA assays; also called hANGPTL8; free ANGPTL8
T3 sequence: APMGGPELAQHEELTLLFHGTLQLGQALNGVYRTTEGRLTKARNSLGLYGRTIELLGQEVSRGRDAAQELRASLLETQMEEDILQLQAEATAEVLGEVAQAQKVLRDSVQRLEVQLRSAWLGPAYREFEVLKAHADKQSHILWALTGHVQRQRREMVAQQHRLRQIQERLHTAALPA

B1: anti-ANGPTL3/8 complex Ab having a LC of SEQ ID NO:5 and a HC of SEQ ID NO:6 (antibody, human IgG4 S228P, kappa, F234A L235A, V domains shown)
VH: QVTLKESGPTLVKPTQTLTLTCTFSGFSLSISGVGVGWIRQPPGKALEWLALIYRNDDKRYSPSLKSRLTITKDTSKNQVVLTLTNMDPVDTATYYCARTYSSGWYGNWFDPWGQGTLVTVSS
VL: DIVMTQTPLSLPVTPGEPASISCRSSQSLLDSDDGNTYLDWYLQKPGQSPQLLIYMLSYRASGVPDRFSGSGSGTDFTLKISRVEAEDVGIYYCMQRIEFPLTFGGGTKVEIKR
notes: In the ELISA assays tested as IgG from CHO supernatants; also called the Ab
B2: Ab with LC variant having a D31S mutation (SEQ ID NO:21) and a HC of SEQ ID NO:6 (antibody, human IgG4 S228P, kappa, F234A L235A, V domains shown)
VH: QVTLKESGPTLVKPTQTLTLTCTFSGFSLSISGVGVGWIRQPPGKALEWLALIYRNDDKRYSPSLKSRLTITKDTSKNQVVLTLTNMDPVDTATYYCARTYSSGWYGNWFDPWGQGTLVTVSS
VL: DIVMTQTPLSLPVTPGEPASISCRSSQSLLSSDDGNTYLDWYLQKPGQSPQLLIYMLSYRASGVPDRFSGSGSGTDFTLKISRVEAEDVGIYYCMQRIEFPLTFGGGTKVEIKR
notes: also called D31S Variant Ab; D31S Ab
B3: Ab with LC variant having a D33A mutation (SEQ ID NO:22) and a HC of SEQ ID NO:6 (antibody, human IgG4 S228P, kappa, F234A L235A, V domains shown)
VH: QVTLKESGPTLVKPTQTLTLTCTFSGFSLSISGVGVGWIRQPPGKALEWLALIYRNDDKRYSPSLKSRLTITKDTSKNQVVLTLTNMDPVDTATYYCARTYSSGWYGNWFDPWGQGTLVTVSS
VL: DIVMTQTPLSLPVTPGEPASISCRSSQSLLDSADGNTYLDWYLQKPGQSPQLLIYMLSYRASGVPDRFSGSGSGTDFTLKISRVEAEDVGIYYCMQRIEFPLTFGGGTKVEIKR
notes: also called D33A Variant Ab; D33A Ab
B4: Ab with LC variant having a E99Q mutation (SEQ ID NO:25) and a HC of SEQ ID NO:6 (antibody, human IgG4 S228P, kappa, F234A L235A, V domains shown)
VH: QVTLKESGPTLVKPTQTLTLTCTFSGFSLSISGVGVGWIRQPPGKALEWLALIYRNDDKRYSPSLKSRLTITKDTSKNQVVLTLTNMDPVDTATYYCARTYSSGWYGNWFDPWGQGTLVTVSS
VL: DIVMTQTPLSLPVTPGEPASISCRSSQSLLDSDDGNTYLDWYLQKPGQSPQLLIYMLSYRASGVPDRFSGSGSGTDFTLKISRVEAEDVGIYYCMQRIQFPLTFGGGTKVEIKR
notes: also called E99Q Variant Ab; E99Q Ab

Experiments:
[1] = molecular target: T1, human ANGPTL3; experiment: ELISA; Ab captured by anti-human Fc; biotinylated antigen at 0.137 nM
Method: (§1) ELISA Assay: Ab binding selectivity to either the ANGPTL3/8 complex, free ANGPTL3 or free ANGPTL8 is verified using standard ELISA assays. […] Ab from CHO supernatants after expression in CHO cells is then captured to the assay plate and results is an Ab concentration of 2 μg/ml. Biotinylated antigen (ANGPTL3, ANGPTL8 or ANGPTL3/8 complex) is added at varying concentrations by serial dilution to allow for Ab/antigen binding. Ab/antigen complexes are detected after the addition of alkaline phosphatase-conjugated neutravidin, and alkaline phosphatase substrate, and subsequent measurement of the optical density at 560 nm.

[2] = molecular target: T2, human ANGPTL3/8 complex; experiment: as above
Method: as §1

[3] = molecular target: rat ANGPTL3/8 complex (rat, UniProt F7FHP0 17-446); experiment: cell-based or functional assay
[4] = molecular target: T1, human ANGPTL3; experiment: ELISA; Ab captured by anti-human Fc; biotinylated antigen at 1.23 nM
Method: as §1

[5] = molecular target: T2, human ANGPTL3/8 complex; experiment: as above
Method: as §1

[6] = molecular target: T3, human ANGPTL8; experiment: as above
Method: as §1

[7] = molecular target: T1, human ANGPTL3; experiment: single point ELISA
Method: (§2) Single Point ELISA (SPE) Assay: Ab binding selectivity to either the ANGPTL3/8 complex, free ANGPTL3 or free ANGPTL8 is initially verified using standard ELISA assays in a single point format. […] IgG secreted into supernatants after expression in CHO cells are then captured to the assay plate. Biotinylated antigen is added at a concentration of 25 nM to allow for Ab/antigen binding. Ab/antigen complexes are detected after adding alkaline phosphatase-conjugated neutravidin and alkaline phosphatase substrate, and subsequent measurement of the optical density at 560 nm. Positive binding is determined by a signal greater than 3 fold over the non-binding background signal.

[8] = molecular target: T3, human ANGPTL8; experiment: single point ELISA
Method: as §2

[9] = molecular target: T1, human ANGPTL3; experiment: ELISA, antigen titration
Method: as §1

[10] = molecular target: T3, human ANGPTL8; experiment: ELISA, antigen titration
Method: as §1

rat ANGPTL3/8 complex, sequence (F7FHP0 entry or part of it, one chain of several): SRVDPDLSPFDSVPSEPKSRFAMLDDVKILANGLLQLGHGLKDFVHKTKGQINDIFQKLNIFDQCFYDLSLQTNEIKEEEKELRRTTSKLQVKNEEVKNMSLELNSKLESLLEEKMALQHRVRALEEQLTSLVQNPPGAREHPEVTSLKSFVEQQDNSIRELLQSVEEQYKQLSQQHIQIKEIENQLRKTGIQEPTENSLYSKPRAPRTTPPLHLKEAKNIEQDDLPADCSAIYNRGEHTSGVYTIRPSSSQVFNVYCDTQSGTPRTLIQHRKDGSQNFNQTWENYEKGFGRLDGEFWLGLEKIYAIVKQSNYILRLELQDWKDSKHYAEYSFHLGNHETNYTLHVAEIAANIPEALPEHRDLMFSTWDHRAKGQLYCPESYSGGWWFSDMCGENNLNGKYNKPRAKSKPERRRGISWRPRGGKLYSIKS

| Binder | OD at 560 nm [1] | OD at 560 nm [2] | % Max Derepression of LPL [3] | Ab EC50 (nM), derepression of LPL [3] | OD at 560 nm [4] | OD at 560 nm [5] | OD at 560 nm [6] | binding result [7] | binding result [8] | binding result [9] | binding result [10] |
| --- | --- | --- | --- | --- | --- | --- | --- | --- | --- | --- | --- |
| B1 | 0.048 OD 560 nm | 0.11 OD 560 nm | 105% | 2.77 nM | 0.043 OD 560 nm | 0.51 OD 560 nm | 0.043 OD 560 nm | no binding | no binding | – | – |
| B2 | 0.057 OD 560 nm | 0.137 OD 560 nm | – | – | 0.059 OD 560 nm | 0.575 OD 560 nm | 0.058 OD 560 nm | – | – | no binding (tested: 100 nM antigen) | no binding (tested: 100 nM antigen) |
| B3 | 0.062 OD 560 nm | 0.101 OD 560 nm | – | – | 0.057 OD 560 nm | 0.491 OD 560 nm | 0.049 OD 560 nm | – | – | no binding (tested: 100 nM antigen) | no binding (tested: 100 nM antigen) |
| B4 | 0.057 OD 560 nm | 0.137 OD 560 nm | – | – | 0.059 OD 560 nm | 0.575 OD 560 nm | 0.058 OD 560 nm | no binding | no binding | – | – |
